The source of these data is paper PMC4191421.

The target in series [1] is BLM RecQ-core (core-BLM) (human) (UniProt P54132). Briefly: smFRET (GQ unfolding). The conditions noted are these: smFRET: 150 mM K+ (or 50 mM K+, 50/150 mM Na+), 5 mM Mg2+, pH 7.5, EMSA: 50 mM K+, 50 mM Tris-HCl pH 7.5, 1 mM DTT, 22 C; for binding signal: 150 mM K+, saturating BLM; for binding signal (% unfolded at 25 nM): 50 mM Na+.
Series [2] has the same target. Briefly: smFRET (GQ unfolding titration, Langmuir). The conditions noted are these: strand 2 is RNA, smFRET: 150 mM K+ (or 50 mM K+, 50/150 mM Na+), 5 mM Mg2+, pH 7.5, EMSA: 50 mM K+, 50 mM Tris-HCl pH 7.5, 1 mM DTT, 22 C. A general note: Mobility shift assays separate free from complexed probe on a gel.
The next series addresses WRN (human) (UniProt Q14191). The experiment in a line: smFRET (GQ unfolding). The following applies: 50 mM Na+, strand 2 is RNA, smFRET: 150 mM K+ (or 50 mM K+, 50/150 mM Na+), 5 mM Mg2+, pH 7.5, EMSA: 50 mM K+, 50 mM Tris-HCl pH 7.5, 1 mM DTT, 22 C.
For series [3], the target named is BLM RecQ-core (core-BLM) (human) (UniProt P54132). Briefly: smFRET. The conditions noted are these: smFRET: 150 mM K+ (or 50 mM K+, 50/150 mM Na+), 5 mM Mg2+, pH 7.5, EMSA: 50 mM K+, 50 mM Tris-HCl pH 7.5, 1 mM DTT, 22 C.
Series [4] shares this target. The experiment in a line: smFRET. The conditions noted are these: strand 2 is RNA, smFRET: 150 mM K+ (or 50 mM K+, 50/150 mM Na+), 5 mM Mg2+, pH 7.5, EMSA: 50 mM K+, 50 mM Tris-HCl pH 7.5, 1 mM DTT, 22 C.
The mark [5] stands for this setting: nt-free, 150 mM Na+, strand 2 is RNA.

Where “and” joins values, the source holds several entries; their conditions need not be identical. Identical values can stand only once.

Sequence of BLM RecQ-core (core-BLM) (human) (P54132 642-1290): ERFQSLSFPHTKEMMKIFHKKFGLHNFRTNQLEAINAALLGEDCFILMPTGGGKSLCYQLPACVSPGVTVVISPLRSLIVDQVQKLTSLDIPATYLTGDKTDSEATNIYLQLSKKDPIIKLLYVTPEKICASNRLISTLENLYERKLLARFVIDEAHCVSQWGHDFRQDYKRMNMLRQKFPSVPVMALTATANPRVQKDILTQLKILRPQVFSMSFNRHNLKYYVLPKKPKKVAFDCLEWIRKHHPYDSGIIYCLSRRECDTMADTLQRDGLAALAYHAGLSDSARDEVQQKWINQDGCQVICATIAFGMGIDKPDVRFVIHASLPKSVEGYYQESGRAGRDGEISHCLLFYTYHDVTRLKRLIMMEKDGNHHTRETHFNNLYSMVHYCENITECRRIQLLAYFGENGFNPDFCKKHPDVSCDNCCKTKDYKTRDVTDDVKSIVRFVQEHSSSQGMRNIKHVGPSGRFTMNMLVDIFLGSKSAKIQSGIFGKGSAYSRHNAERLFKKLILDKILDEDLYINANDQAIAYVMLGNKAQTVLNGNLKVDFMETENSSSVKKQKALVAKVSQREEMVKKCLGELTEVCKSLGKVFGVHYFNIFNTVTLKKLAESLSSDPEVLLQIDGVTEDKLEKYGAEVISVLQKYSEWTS
Sequence of WRN (human) (Q14191 whole entry): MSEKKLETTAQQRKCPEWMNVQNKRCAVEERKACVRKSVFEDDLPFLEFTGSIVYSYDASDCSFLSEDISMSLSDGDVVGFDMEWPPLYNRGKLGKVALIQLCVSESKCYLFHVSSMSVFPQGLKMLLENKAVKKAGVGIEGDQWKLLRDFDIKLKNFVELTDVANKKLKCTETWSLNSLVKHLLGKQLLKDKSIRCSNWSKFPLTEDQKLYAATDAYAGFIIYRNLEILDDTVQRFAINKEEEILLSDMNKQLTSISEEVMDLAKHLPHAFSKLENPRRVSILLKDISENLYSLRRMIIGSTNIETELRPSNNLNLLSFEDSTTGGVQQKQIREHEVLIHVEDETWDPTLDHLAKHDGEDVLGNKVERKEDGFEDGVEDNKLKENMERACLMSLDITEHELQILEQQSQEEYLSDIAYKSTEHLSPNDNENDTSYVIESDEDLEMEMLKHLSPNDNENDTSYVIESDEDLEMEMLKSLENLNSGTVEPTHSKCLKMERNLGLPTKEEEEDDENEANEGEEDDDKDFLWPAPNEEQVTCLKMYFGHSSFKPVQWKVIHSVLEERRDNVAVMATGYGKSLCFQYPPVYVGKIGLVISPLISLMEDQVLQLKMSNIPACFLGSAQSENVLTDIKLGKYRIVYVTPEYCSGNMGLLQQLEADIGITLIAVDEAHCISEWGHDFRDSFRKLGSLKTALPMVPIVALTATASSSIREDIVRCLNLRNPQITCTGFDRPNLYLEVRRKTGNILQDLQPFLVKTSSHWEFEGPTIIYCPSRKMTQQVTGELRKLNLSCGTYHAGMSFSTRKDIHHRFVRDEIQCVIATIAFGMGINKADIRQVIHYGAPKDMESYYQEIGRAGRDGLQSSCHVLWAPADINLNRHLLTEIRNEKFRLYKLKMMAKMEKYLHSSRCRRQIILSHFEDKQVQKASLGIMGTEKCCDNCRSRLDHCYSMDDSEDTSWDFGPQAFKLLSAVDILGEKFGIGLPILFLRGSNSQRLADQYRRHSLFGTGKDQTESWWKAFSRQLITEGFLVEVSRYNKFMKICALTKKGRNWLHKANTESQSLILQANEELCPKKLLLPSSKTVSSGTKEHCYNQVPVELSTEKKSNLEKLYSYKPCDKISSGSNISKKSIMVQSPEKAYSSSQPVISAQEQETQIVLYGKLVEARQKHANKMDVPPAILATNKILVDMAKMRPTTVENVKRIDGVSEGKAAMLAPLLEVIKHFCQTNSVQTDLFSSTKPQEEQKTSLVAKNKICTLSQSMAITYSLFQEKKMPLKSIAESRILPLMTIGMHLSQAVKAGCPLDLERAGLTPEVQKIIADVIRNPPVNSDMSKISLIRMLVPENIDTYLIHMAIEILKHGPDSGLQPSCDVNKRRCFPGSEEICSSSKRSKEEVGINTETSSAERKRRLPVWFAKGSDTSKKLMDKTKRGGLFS

Turning to “TTTTTTTTTTTTGGGTTAGGGTTAGGGTTAGGGTTTGGCGACGGCAGCGAGGC / GCCTCGCTGCCGTCGCCA [pd-hGQ12T-5']”, the binding signal (% unfolded at 1 uM) in series [1] (ATPgS, 50 mM K+) was 30; in series [1] (nt-free, 50 mM K+) it was 21.

Take “TGGCGACGGCAGCGAGGCTAGGGTTAGGGTTAGGGTTAGGGTTTTTTTTTTTTTTT / GCCUCGCUGCCGUCGCCA [pd-hGQ15T]”: the binding signal in series [1] (ADP, strand 2 is RNA) was determined as 22 % unfolded; in series [1] (ATPgS, strand 2 is RNA), 57 % unfolded; in series [1] (nt-free, strand 2 is RNA), 48 % unfolded.

Consider “TGGCGACGGCAGCGAGGCTAGGGTTAGGGTTAGGGTTAGGGTTTTTTTTTTTT / GCCUCGCUGCCGUCGCCA [pd-hGQ12T]”, for which the K half in series [2] (1 mM ADP, 150 mM K+, alpha 32%) amounted to 55 nM; in series [2] (1 mM ATPgS, 150 mM K+, alpha 53%), 108 nM; in series [2] (nt-free, 50 mM K+, alpha 55%) it was 28 nM; in series [2] (nt-free, 150 mM K+, alpha 49%) it was 305 nM. Also, the binding signal (% unfolded at 25 nM) came to 25 in series [1] (ATPgS, strand 2 is RNA); 18 in series [1] (nt-free, strand 2 is RNA); 25 in the series with WRN (human) (ATPgS); 8 with WRN (human) (nt-free). This sequence also returned a binding signal (% unfolded at 300 nM) in series [1] (setting [5]) of 17. The same sequence showed a binding signal (% unfolded at 1000 nM) in series [1] (setting [5]) of 38.

Take “TTTTTTTTTTTTTTTTGGCGACGGCAGCGAGGC / GCCTCGCTGCCGTCGCCA [pd-polyT15-5']”: the binding signal (% bound at 1 uM) in series [3] (1 mM ATPgS, 50 mM K+) was 53.

Take “TGGCGACGGCAGCGAGGCTTTTTTTTTTTTTTT / GCCUCGCUGCCGUCGCCA [pd-polyT15]”: the binding signal (% bound at 1 uM) turned out to be 12 in series [3] (1 mM ADP, 150 mM K+, strand 2 is RNA); 21 in series [3] (strand 2 is RNA); 36 in series [4]. Moreover, the binding signal (fold higher Keq in 150 vs 50 mM Na+) in series [3] (nt-free, strand 2 is RNA) amounted to 4.7.

Consider “TGGCGACGGCAGCGAGGCTTGGGTGGGTGGGTGGGTTTTTTTTTTTT / GCCUCGCUGCCGUCGCCA [pd-3Ly1Lp12T]”, for which the binding signal (% unfolded at 1 uM) in series [1] (strand 2 is RNA) was 46 and 58.
